# Data published in the supplement of paper PMC12042874.
# ± gives the uncertainty stated by the source.
# Experiment: amyloid nucleation score (Sup35N fusion, yeast selection) (log enrichment); library NNK1; higher = more nucleation; inactive = no reads after selection
# Summary of the method: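 Three technical output replicates were used for random libraries. Psi-negative yeast expressing peptides of 20 random codons fused to Sup35N were induced with 100 μM copper sulfate for 24 hours and grown 7 days at 30°C on medium lacking adenine and uracil, and input and output plasmid inserts were Illumina-sequenced, excluding sequences with under 100 input reads. The nucleation score is the DiMSum log enrichment of output over input reads, centred on the mode score of non-aggregating sequences.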
row,Substance,amyloid nucleation score
1,EDSYFYFRIEGISTVKCMAR,-0.427 ± 1.9
2,EECAFYSSMK,inactive
3,EECGLGCAVKA,0.188 ± 0.19
4,EEFFMLRVDWIEEANQCKRE,0.221 ± 0.47
5,EFDFK,-0.716 ± 0.74
6,EFELRASNLPFNVFPIGFSN,1.07 ± 0.67
7,EFSLGSPIKWTNHGLVIKGM,2.71 ± 0.13
8,EFVGVGNIVPFTTSWLIMGR,0.271 ± 0.2
9,EGHARKKEWLTITPRER,0.261 ± 0.38
10,EGRSWW,-0.691 ± 1.4
11,EGSQLSPAWFGYRDDGFTTM,0.904 ± 1
12,EGYAWGPYLKLTRSKLRMSF,-0.374 ± 0.81
13,EHSSVCLESSQYVRMVVIKQ,0.531 ± 0.66
14,EHTSGVDFIVNNLSECFTLR,inactive
15,EISVWVEALFSLYFRNWISG,0.229 ± 0.84
16,EIYGKCLNPIGL,0.53 ± 0.52
17,EKGRFVRLDERLYYLCVVWS,0.163 ± 0.66
18,EKHEVVCIVKTVR,0.424 ± 0.85
19,EKIQINQKG,1.04 ± 0.66
20,EKSGAWSTVRRMISC,0.374 ± 0.23
21,ELMCNTQSLSAETCFGKKSY,0.97 ± 0.63
22,ELYCEVSSKIAGLDLFV,0.57 ± 0.78
23,EMTCAWDGNELLFKQRRTIR,inactive
24,ENCFSCNEYCERYSPALCGQ,inactive
25,ENEAGATYDGMMVVGSELSS,0.997 ± 0.43

row,Substance,amyloid nucleation score
1,ENERMTLHCGYFKNMCMFRF,1.9 ± 0.22
2,ENKLNSPPWMLSLFTFLIVV,-0.242 ± 0.66
3,ENLGGWAPTLCYRRT,0.187 ± 0.4
4,ENVCFLTKM,0.423 ± 0.26
5,ENVSVIRFQRRYRSCPDHGL,0.04 ± 0.46
6,EPFETQEVMSLNMCSNQMVF,0.333 ± 0.27
7,EPSLERRRRPSEMVGAKGWI,-0.374 ± 1.1
8,ERDCAMISNLSNLTVNY,-0.616 ± 0.36
9,ERIRTHIRPIGCRRNLMVGW,1.08 ± 0.63
10,ERRLTTFCCMWANLGVADGT,0.436 ± 1
11,ERVSRSVGPACAREETKGST,0.354 ± 0.77
12,ESAHNWWNPVSSYL,1.06 ± 0.58
13,ESCKSVNCLMRQGDLRVTAW,-0.122 ± 0.3
14,ESHLRASAGLWLSAGRDCNG,1.38 ± 0.63
15,ESLFLVCRPRRQVFIVSCRS,-0.716 ± 0.38
16,ESMDSWDYVLNISAEMVYCR,0.366 ± 0.54
17,ESQSRGLMIVNGDFKD,0.018 ± 0.37
18,ESSGRGCVPSEKIDEHGPVT,-0.319 ± 1
19,ESSNLYYYRTSHKKKTTLCS,-0.639 ± 1.7
20,ESTLNRVRVTALETVQQCLS,0.275 ± 1.2
21,ETAEMIAVPDRAHF,1.05 ± 0.57
22,ETEGSELFNFWAGVNWRRIQ,-0.425 ± 1.3
23,ETHVRAPSGGNAGPLRRGSS,-0.877 ± 0.52
24,ETSGSPFILIICIYELNVVM,4.61 ± 0.07
25,ETTRNKAMNTFMLPFSQSCK,0.39 ± 0.56

row,Substance,amyloid nucleation score
1,EVAFRVTCCSCWLISRNVGR,2.77 ± 0.15
2,EVCVLRTLNRKNFDEPDNCI,0.913 ± 0.56
3,EVGNCFLESPGMVYVVGRDR,0.51 ± 0.52
4,EVIAGCGLRCRSSNHIVREM,0.104 ± 0.36
5,EVILFNGLRMRAVPETWAST,0.587 ± 0.4
6,EVNLHLGCVWLVRLCVSDDG,2.08 ± 0.19
7,EVQSDSSEVRDTEYMDISSW,inactive
8,EVWNRTWIGEENVTGPFVPR,-0.012 ± 0.24
9,EWDSYMGPFAERMEYNVVFH,0.398 ± 0.62
10,EWRFCKS,-0.335 ± 0.33
11,EWVALRCLDMEGAVAPLALV,1.02 ± 0.28
12,EYLLNNPVGRCFDLLFNSIG,-0.881 ± 0.66
13,EYMFGYVSLSVDGSTLEFHD,0.107 ± 0.24
14,EYSADTIGVIGLGTAPDERR,-0.239 ± 0.84
15,EYVVRYSCMWRE,0.485 ± 1.2
16,FAAVPYISVLIRRLCLPYRT,1.07 ± 0.7
17,FALIRN,-0.368 ± 1.7
18,FALLFRLFRW,0.539 ± 0.28
19,FALVRTLTRSKSSFTTSQIK,0.524 ± 0.47
20,FANLVYGQLRVNDTLVSCT,-0.044 ± 0.33
21,FAQECLFMSVDLCLR,0.125 ± 1.1
22,FAWGREVRLEIEY,0.371 ± 0.31
23,FAWSRAACFSIPVRISVSLG,1.14 ± 0.72
24,FCIYVLFFRSVDYPLRVVEL,-0.529 ± 0.67
25,FCLMMEVGSVLRNLVPVSFR,-0.122 ± 1.4

row,Substance,amyloid nucleation score
1,FCQGYRLGS,0.19 ± 0.48
2,FCSNPAGWSSWSPE,0.182 ± 0.9
3,FCTHHWG,-0.382 ± 0.6
4,FDAMSANLESIYFSFNENMY,-0.572 ± 0.56
5,FDATFVMLRSRAFFKICKER,0.751 ± 0.27
6,FDIFVDLFFMGALSMRPAAQ,-0.241 ± 1.1
7,FDNLWRQYYVIGWILARAFS,-0.983 ± 0.9
8,FDQLEGLRCASSWKLLSSPG,0.062 ± 0.8
9,FDVLVIFGFDTNRDACSDAL,0.174 ± 0.38
10,FEECLM,-0.059 ± 0.44
11,FEGAW,-0.187 ± 1
12,FEGILIKFCFGAWESDKVTM,1.36 ± 0.59
13,FEHWCFRLPCVKDESCWD,0.821 ± 0.8
14,FELGWMYSYKMAKLPWYMTC,0.362 ± 0.99
15,FELTVGIWQHWRT,0.45 ± 0.5
16,FERCLNPGYCINFAGCESVV,0.581 ± 0.51
17,FESTNVLPISGTSAGSV,1.18 ± 0.74
18,FEYCCFSYEIVLELARFRGF,-0.535 ± 1.7
19,FFAHNRTMSRRNQAFGF,0.86 ± 1.1
20,FFCLSIHVYSG,0.46 ± 0.97
21,FFCWTCSAINLYRLLGPPMF,5.67 ± 0.064
22,FFELYRVLCTNAFLWCKGYV,-0.423 ± 0.44
23,FFHAIIWRLIYRQFPDFVG,0.984 ± 0.43
24,FFIICSYR,-0.868 ± 0.37
25,FFILSFNIRIYIFEVVTFLK,0.555 ± 0.52

row,Substance,amyloid nucleation score
1,FFILYINSQLIREVILRRAH,-0.128 ± 0.23
2,FFLAV,-0.158 ± 0.64
3,FFLEAACYSIFGVEK,-0.612 ± 0.3
4,FFLLIFSVRGNPFFIKW,-0.153 ± 0.66
5,FFRDSHYIQRDKSQPSRGSN,-0.269 ± 1.1
6,FFRMMKSLFQMRVRIDCRMG,-0.653 ± 1.4
7,FFSSNNRWRTLYNLHCSEFA,0.24 ± 0.56
8,FFTIQMGYMALGMW,1.16 ± 0.23
9,FFVFSSLGHLV,0.859 ± 0.26
10,FFWHVS,0.091 ± 0.65
11,FGGKHFYVGGRFGLLNMCDF,-0.548 ± 2.1
12,FGGSLMASFDCTRPSSMER,-0.606 ± 1.6
13,FGIWIRGFRTYDECHPAHGC,0.434 ± 0.41
14,FGLHCINLNWVEKWFDIDGP,-0.245 ± 0.84
15,FGMNLILHCTPTQRTYISPV,2.83 ± 0.092
16,FGNSFRSQGVSFM,0.414 ± 0.32
17,FGSARGHSGY,1.52 ± 0.18
18,FGVEYWWSLGCVWGTLLGYN,inactive
19,FGYTVFIDFVSSGMMRFGGQ,0.784 ± 0.48
20,FHAWSVFFIVRCLTEVRGYL,-0.081 ± 0.34
21,FHEDKIS,1.34 ± 0.36
22,FHGDLA,-0.57 ± 0.26
23,FHICGFRYSHLGREPMKFGI,2.23 ± 0.19
24,FHQDFDSWF,0.362 ± 0.51
25,FHSSGFVVYMLIVRGSPSMR,0.218 ± 0.27

row,Substance,amyloid nucleation score
1,FHVVSFQGETCDHRIGRIVY,0.002 ± 0.33
2,FIAIDLS,1.31 ± 0.45
3,FIFCAGCVENNTSSPK,6.224 ± 0.059
4,FIFWGDLFWV,-0.992 ± 0.32
5,FIIDYKTDKRSEFWL,0.215 ± 0.35
6,FIITWILTKNMKLGEVYSIS,-0.132 ± 0.72
7,FINGFGEDLKHIREVEVYLY,4.07 ± 0.084
8,FIQCVFHVCLRV,4.68 ± 0.073
9,FIRASWCSRIYIKFVN,0.587 ± 0.43
10,FIRCVNSV,-0.745 ± 2.4
11,FIRFTICALTSKVDFI,0.811 ± 0.74
12,FIRTRLIIYLSEDGYPVA,1.31 ± 0.21
13,FISPFCIVSYIIC,5.846 ± 0.054
14,FISPLSISLHQWVLSSKYRE,7.394 ± 0.044
15,FIVDLWCMLFNSILAGCVVV,-0.008 ± 0.21
16,FIVFISFSFWRVTGIR,-0.139 ± 0.59
17,FIVTYSNTIRYSMPSKLPWQ,3.26 ± 0.077
18,FIWSVTYSGP,1.48 ± 0.72
19,FKAHRMVLHGYIGSMERG,-0.186 ± 1.1
20,FKDGLCYCNSGVS,-0.452 ± 0.39
21,FKEER,0.133 ± 1.4
22,FKGRNSFPLLDSWVIHRIGI,0.422 ± 0.9
23,FKRRKSFAHCRFAGVVRRWW,-0.581 ± 1.2
24,FKTTDHFVGVYCLLYAKKQG,-0.235 ± 0.77
25,FKVNRHLPELHLCKGTEWKL,inactive

row,Substance,amyloid nucleation score
1,FLCEAFDQGNLVIIDP,-0.502 ± 0.46
2,FLDLSGMPGSVWFDIGVSCF,-0.716 ± 1
3,FLDYKTSSGHRLYLDRAKES,-0.492 ± 0.36
4,FLEFWPSVTVYSRCFLVFGR,-1.06 ± 1.1
5,FLFYRCLGVKFFVFFMIVSK,-0.817 ± 2.4
6,FLGGDTRIDHGTLWWSLIRQ,0.032 ± 0.35
7,FLIFIRFNGHCLSIGWFTLH,0.303 ± 1
8,FLISWTIVMHVCTMTDACCR,inactive
9,FLNMASIFNFLHTNRF,0.054 ± 1.2
10,FLNTNEKIKMQPIFPFFLLL,-0.495 ± 0.65
11,FLRRIGMGYIRLRVLGSIFL,0.854 ± 0.49
12,FLRSIKWVTVVS,0.51 ± 0.28
13,FLSVASFTRI,0.246 ± 0.32
14,FLSYDMLYVKLT,2.44 ± 0.16
15,FLVSCYPWVE,0.248 ± 0.71
16,FLWDL,0.268 ± 0.75
17,FLWVTWYFSTVFYVNWALE,0.505 ± 0.89
18,FLYGYGADPMPMSSVGRGVK,-0.864 ± 0.51
19,FLYVLDSVSCQ,0.648 ± 0.69
20,FMELEELCSCNERGLLWTPA,1.6 ± 0.27
21,FMGFISACQRMIIIMYVFRT,-0.126 ± 0.28
